Laboratory results as given in US6737058B2, “Methods for inhibiting endothelial cell and fibrinogen mediated inflammation using fibrinogen specific antibodies” (The Scripps Research Institute, priority 1992, dated 2004).
Each block holds one molecule with its values, some of them ahead of it. No end group written: not given here.

How the values were obtained:
[1] = system: WT CHO cells; assay: 125I-labeled γ3 binding to wild type CHO cells; set-up: species or system Chinese Hamster; conditions: 50 μg/ml
Experimental: (§1) Confluent monolayers of ICAM-1 CHO transfectants or wild type (WT) CHO cells were incubated in serum-free RPMI 1640 medium with increasing concentrations of ^125I-labeled γ3 peptide (10-150 μg/ml) in the presence of 1 mM CaCl2 and 1 mM MgCl2 for 45 min at 22° C. Cells were washed with three rapid changes of serum-free RPMI 1640, solubilized in 10% SDS, and radioactivity associated under the various conditions tested was quantitated in a beta-counter. Non specific binding was assessed in the presence of a 100-fold molar excess unlabeled γ3 peptide, or control peptide L10 added at the start of incubation, and was subtracted from the total as described above.

[2] = target: ICAM-1 (Homo sapiens, UniProt P05362); assay: 125I-labeled γ3 binding to ICAM-1 CHO transfectants
Experimental: A variant polypeptide γ3 (KYG-γ3) duplicating the fibrinogen γ chain sequence 117-133 N^117NQKIVNLKEKVAQLEA^133 (SEQ ID NO 2) was synthesized with the addition of Lys-Tyr-Gly residues at the amino terminus to facilitate radiolabeling of the polypeptide (KYGN^117NQKIVNLKEKVAQLEA^133, SEQ ID NO 4). The variant γ3 and L10 polypeptides were synthesized as described in Example 7A. Typically, 2 mg of KYG-γ3 were iodinated with 5 mCi ^125I-Na (Amersham, Arlington Heights, Ill.) by the IODO-GEN method (Fraker et al., Biochem Biophys Res Commun., 80:849-857, (1978)) for 45 min at 4° C. Free radioactivity was separated from polypeptide-bound radioactivity by gel-filtration over a Bio-Gel P-2 column (Bio-Rad, Richmond, Va.) which had been preequilibrated with PBS, pH 7.2, containing 0.01% BSA, with a flow rate of 0.2 ml/sec.
as §1, with “Non specific binding was assessed in the presence of a 100-fold molar excess unlabeled γ3 peptide, or control peptide L10 added at the start of incubation, and was subtracted from the total as described above.” left out

[3] = system: ICAM-1+ JY lymphocytes; assay: Adhesion of 51Cr-labeled JY lymphocytes to peptide-coated wells; format: cell-based; conditions: wells coated with 1-100 μg/ml peptide, 45 min at 37° C.
Experimental: Ninety-six well assay plates (Costar, Cambridge, Mass.) were coated with increasing concentrations (1-100 μg/ml) of the polypeptides γ3 and L10 in PBS, pH 7.2, for 18 h at 4° C. Wells were washed in PBS, pH 7.2 and blocked with 3% gelatin for 60 min at 37° C.
Serum-free suspensions of JY lymphocytes were labeled with 0.5 mCi ^51Cr (Na2CrO4, specific activity 487.4 mCi/mg, E. I., DuPont de Nemours, Wilmington, Del.) for 2 h at 37° C., with a final incorporation of 0.2-4 cpm/cell (Languino, et al., supra). Aliquots of ^51Cr-labeled JY lymphocytes at 1×10^6/ml were added to peptide-coated wells for 45 min at 37° C., washed, solubilized in 20% SDS, and radioactivity associated under the various conditions was determined in a scintillation beta-counter. The number of attached cells was quantitated by dividing the cpm harvested by the cpm/cell. Data are the mean ± S.D. of two independent experiments.

[4] = target: T1, ICAM-1 receptor on JY lymphocytes (Homo sapiens, UniProt P05362); assay: Inhibition of JY lymphocyte adhesion to γ3-coated plates by monoclonal antibodies; format: cell-based; conditions: plates coated with 20 μ/ml peptide, no antibody
T1 construct: endogenous in cells; host or cells: JY lymphocytes (51Cr-labelled)
Experimental: Binding inhibition assays were performed using radiolabeled ICAM-1^+ JY lymphocytes and the γ3 polypeptide. […] The peptides used in this assay were the γ3 and irrelevant polypeptide L10 prepared as described in Example 7A.
Ninety-six well assay plates were coated with 20 μ/ml of the polypeptides γ3 and L10 and the ^51Cr-labeled JY lymphocytes were prepared as described above. The ^51Cr-labeled JY lymphocytes were preincubated with saturating concentrations (25 μg/ml) of monoclonal antibodies anti-ICAM-1 1G12, 2D5, or 6E6; or anti-EPR-1 6A11 before incubation in the […] plates. Binding of radiolabelled JY lymphocytes was measured after a 45 min maintenance period in the presence of the monoclonal antibodies in the γ3 peptide-coated plate. Background binding was assessed by the incubation of ^51Cr-labeled JY lymphocytes which had not been preincubated with a monoclonal antibody in the L10 peptide-coated plate. Data are the mean ± S.D. of replicates of two independent experiments.

[5] = system: HUVEC; assay: Adhesion of terminally-differentiated 51Cr-labeled HL-60 cells to resting HUVEC with plasma adhesive proteins; format: cell-based, human; conditions: for adhesion of differentiated HL-60 cells to HUVEC relative to cells not equilibrated with an adhesive protein: 150 μ/ml protein, fMLP 10 μM, 30 min at 22° C.
Experimental: The effect of fibrinogen, vitronectin, and fibronectin on the interaction of terminally-differentiated HL-60 and monocytic THP-1 cells with HUVEC was determined as described in Languino, supra. Briefly, serum-free suspensions of HL-60 or THP-1 cells were labeled with ^51Cr as described in Example 81A to a final incorporation of 0.2-4 cpm/cell. After washes in PBS, pH 7.2, aliquots of the HL-60 cells were resuspended in serum-free RPMI 1640 at 1.5×10^6/ml and stimulated with 10 μM of the chemoattractant formyl-methionyl-leucyl-phenylalanine (fMLP, Sigma, St. Louis, Mo.) and equilibrated with 150 μ/ml fibrinogen, vitronectin, or fibronectin in the presence of 1 mM CaCl2 for 20 min at 22° C. Equilibrated HL-60 were added to resting HUVEC monolayers that had been previously incubated with fresh complete culture medium 12 hours prior to the experiment and incubated for an additional 30 min at 22° C., washed,solubilized in 10-20% SDS, and associated radioactivity determined in a scintillation β-counter. The number of attached cells was quantitated by diving the cpm harvested by the cpm/cell. Under these experimental conditions, there was no aggregation of the various leukocyte subpopulations in the presence of the different plasma adhesive proteins, nor disruption of the HUVEC monolayers at any time interval tested, as judged by routine microscopic examination of the adhesion field. Data are the mean ± S.D. of triplicates from a representative experiment.
Experimental conditions were the same as described in Example 9C1 except that the ^51Cr-labeled HL-60 cells were equilibrated with 40 μg/ml vitronectin or control protein transferrin and added to resting HUVEC for increasing time intervals between 10 and 60 minutes at 22° C. before measurement of leukocyte adhesion.
Experimental conditions were the same as described in Example 9C1 except that the ^51Cr-labeled HL-60 cells were equilibrated with several concentrations of vitronectin ranging from 1.84 to 150 μg/ml and prior to incubation to resting HUVEC.

[6] = system: HUVEC; assay: Iodinated D30 binding to HUVEC monolayers and its competition; set-up: species or system human; conditions: 50 fold molar excess of cold fibrinogen; myoglobin as nonspecific protein
Experimental: Binding assays described above in Example 3A2) were also performed with the fibrinogen homolog, D30, to determine if that region of fibrinogen also immunoreacted with HUVEC. Since D30 was known to bind to leukocytes via the Mac-1 receptor as described by Altieri et al., J. Biol. Chem., 265:12119-12122 (1990), these experiments were performed to determine if regions of fibrinogen mediating the binding of leukocytes to HUVEC are contained within the D30 fragment. For this analysis, the D30 fragment of fibrinogen prepared in Example 1B was labelled with ^125I as described for labelling of fibrinogen above. Iodinated D30 was admixed to HUVEC monolayers at a concentration of 10 μg/ml to form a binding complex. After washing the cells to remove the unbound D30 as described in Example 3A2) above, the cells were solubilized and the amount of bound radioactivity was determined. The binding of D30 to HUVEC was maximal at 120 minutes of the maintenance period with approximately 60,000 cpm.

[7] = system: HUVEC; assay: Inhibition of 125I-labelled fibrinogen binding to HUVEC by cold fibrinogen, anti-VNR antibodies and RGD/RGE peptides; set-up: species or system human; conditions: anti-VNR antibody 25 μg/ml, 20 minutes at 37° C. preincubation
Experimental: Binding of ^125I-labelled fibrinogen binding to HUVEC assays were performed in the presence of 50 molar excess of unlabelled fibrinogen in order to confirm the specificity of binding as shown in Example 3A. The binding assay was performed as described in Example 3A with the exception that unlabelled fibrinogen was admixed to HUVEC at a 50 molar excess (approximately […] fibrinogen) concurrently with 50 μg/ml of ^125I-labelled fibrinogen. The protein-cell admixtures were maintained at 22° C. for 30 minutes to allow for binding of fibrinogen to HUVEC. In addition to cold fibrinogen, a 50 fold molar excess of BSA was separately admixed as a control. The amount of fibrinogen bound under the above conditions was quantitated as described in Example 3A. The uninhibited total binding of ^125I-labelled fibrinogen saturated after 30 minutes at approximately 4000 cpm per well. […] The binding of fibrinogen to the HUVEC surface fibrinogen receptor is therefore specific.
The specificity of binding to an RGD-independent fibrinogen receptor was confirmed in competition assays performed as described above in the presence of monoclonal antibodies against the beta subunit of the RGD-dependent VNR and in the presence of RGD-containing peptides. For the assays in which the ability of anti-VNR monoclonal antibodies, designated mAb 609 and mAb 7E3, to inhibit the binding of ^125I-labelled fibrinogen to HUVEC, the antibodies were separately maintained at a concentration of 25 μg/ml with HUVEC for 20 minutes at 37° C. After the maintenance period, the antibody-treated HUVEC were washed once with serum-free RPMI 1640 to remove any unbound antibody. Labelled fibrinogen was then admixed to the treated HUVEC at a concentration of 50 μg/ml in the presence of 2.5 mM CaCl2 and […] PPack. The resultant admixtures were maintained for 10-30 minutes at 22° C. The fibrinogen-treated HUVEC were then washed, solubilized and counted as described in Example 3A.
To confirm that the fibrinogen binding site on HUVEC was not RGD dependent, inhibition assays performed as described above for inhibiting with antibodies except that they were done in the presence of 1.0 mM of an RGD-containing peptide. A control RGE-containing peptide was also included in the assay. At selected time points over the time course of one hour, the HUVEC were harvested as described in Example 3A.

ICAM-1, sequence (P05362 28-532): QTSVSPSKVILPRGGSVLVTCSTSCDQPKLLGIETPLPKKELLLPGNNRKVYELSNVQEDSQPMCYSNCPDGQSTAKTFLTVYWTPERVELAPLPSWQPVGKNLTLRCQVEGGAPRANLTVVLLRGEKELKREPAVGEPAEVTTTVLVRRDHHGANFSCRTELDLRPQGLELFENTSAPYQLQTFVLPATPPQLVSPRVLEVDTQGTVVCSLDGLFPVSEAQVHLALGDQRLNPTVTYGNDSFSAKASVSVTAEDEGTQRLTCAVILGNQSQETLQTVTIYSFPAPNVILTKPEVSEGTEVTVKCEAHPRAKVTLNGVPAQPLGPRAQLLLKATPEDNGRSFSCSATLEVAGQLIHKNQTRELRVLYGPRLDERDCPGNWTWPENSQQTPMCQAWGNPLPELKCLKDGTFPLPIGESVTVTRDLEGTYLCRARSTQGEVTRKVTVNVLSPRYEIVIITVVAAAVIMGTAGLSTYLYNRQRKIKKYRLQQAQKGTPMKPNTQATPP
T1 sequence (P05362 28-532): as above

Molecule: KYGN^117NQKIVNLKEKVAQLEA^133 (KYGNNQKIVNLKEKVAQLEA; also: 125I radiolabel) [KYG-γ3]
binding of 125I-labeled γ3 polypeptide to WT CHO cells [1]: did not bind
binding of 125I-labeled γ3 polypeptide to ICAM-1 CHO transfectants ([2]; 10-150 μg/ml, 1 mM CaCl2 and 1 mM MgCl2, 45 min at 22° C.): bound to ICAM-1 CHO transfectants in a specific and dose-dependent fashion

Molecule: LGGAKQAGDV (OTHER INFORMATION: synthesized) [L10, reference compound]
adhesion of JY lymphocytes to immobilized peptide [3]: did not support lymphocyte adhesion at any concentration tested
JY lymphocyte adhesion to L10-coated plate (background) [4]: did not support significant JY lymphocyte adhesion

competition of 125I-labeled γ3 polypeptide binding ([2]; 100-fold molar excess unlabeled peptide): competitively inhibited
Molecule: NNQKIVNLKEKVAQLEA (OTHER INFORMATION: synthesized) [γ3]
adhesion of JY lymphocytes to immobilized peptide [3]: strongly adhered

Molecule: fibronectin
adhesion of differentiated HL-60 cells to HUVEC relative to cells not equilibrated with an adhesive protein [5]: did not result in an increase in adhesion

competition of D30 binding to HUVEC [6]: did not inhibit
B1: Myoglobin: a nonspecific protein (protein, UniProt P68082 2-154, looked up)
Myoglobin: GLSDGEWQQVLNVWGKVEADIAGHGQEVLIRLFTGHPETLEKFDKFKHLKTEAEMKASEDLKKHGTVVLTALGGILKKKGHHEAELKPLAQSHATKHKIPIKYLEFISDAIIHVLHSKHPGDFGADAQGAMTKALELFRNDIAAKYKELGFQG

B2: vitronectin: human vitronectin purchased from GIBCO or donated (protein, UniProt P04004 20-478, looked up)
Vitronectin: DQESCKGRCTEGFNVDKKCQCDELCSYYQSCCTDYTAECKPQVTRGDVFTMPEDEYTVYDDGEEKNNATVHEQVGGPSLTSDLQAQSKGNPEQTPVLKPEEEAPAPEVGASKPEGIDSRPETLHPGRPQPPAEEELCSGKPFDAFTDLKNGSLFAFRGQYCYELDEKAVRPGYPKLIRDVWGIEGPIDAAFTRINCQGKTYLFKGSQYWRFEDGVLDPDYPRNISDGFDGIPDNVDAALALPAHSYSGRERVYFFKGKQYWEYQFQHQPSQEECEGSSLSAVFEHFAMMQRDSWEDIFELLFWGRTSAGTRQPQFISRDWHGVPGQVDAAMAGRIYISGMAPRPSLAKKQRFRHRNRKGYRSQRGHSRGRNQNSRRPSRATWLSLFSSEESNLGANNYDDYRMDWLVPATCEPIQSVFFFSGDKYYRVNLRTRRVDTVDPPYPRSIAQYWLGCPAPGHL
time and dose dependency of vitronectin-mediated increase in HL-60 adhesion ([5]; 10 to 60 minutes, 1.84 to 150 μg/ml): time-and dose-dependent manner
adhesion of differentiated HL-60 cells to HUVEC relative to cells not equilibrated with an adhesive protein [5]: three to four-fold
vitronectin concentration at which increase in HL-60 adhesion was saturated ([5]; vitronectin 1.84 to 150 μg/ml): 50 µg/mL

inhibition of 125I-labelled fibrinogen binding to HUVEC (FIG. 7) [7]: no inhibitory effect
B3: mAb 609: anti-VNR monoclonal antibody (antibody, V domains shown)
VH: EVQLEESGGGLVKPGGSLKLSCAASGFAFSSYDMSWVRQIPEKRLEWVAKVSSGGGSTYYLDTVQGRFTISRDNAKNTLYLQMSSLNSEDTAMYYCARHNYGSFAYWGQGTLVTVSA
VL: ELVMTQTPATLSVTPGDSVSLSCRASQSISNHLHWYQQKSHESPRLLIKYASQSISGIPSRFSGSGSGTDFTLSINSVETEDFGMYFCQQSNSWPHTFGGGTKLEIKRA
